Source: the DeepSol protein solubility set

Assay: soluble on expression in E. coli; label from the status in PepcDB or PDB records

**Q.** With “MAHHHHHHMVTAVASVVFARFLRQRYPTVQRVSQYENLSTSPDAPCFVANRILTMTSSQAGTHADGPHHFCRSLSHRNYDDAHYSGDAVVLDIATELREHHQSLDPDASLAITVEVLEKARVKLPAAFRDGSRPVWRLLLVTRHSTATSPTSASATEALTGPPRVFFPLDVASPTQVATVGVKGGTAATLAEPSSNAYAFLYPEAVDYLHRVFPRLVLLGIDSPSVDLPQAMPPGQHSHGALLRCGIAILENLRYTRLSPLLESPAGNNQRGWISGSMLTVFNATQNYDDARGCSVIFFPEEAL” as the sequence, how does the “soluble on expression in E. coli” value read?
**A.** The value was “soluble”.

**Q.** Which “soluble on expression in E. coli” value does the source give for “MAHHHHHHMVWFSAPDNSEFLGDPLPRKARQPKVHLATEVSVEASVPWEDVSSWECGSQTSRNSSRSSTSDNAANGHVANINKFHDRMELIRRLNKRRRNNSTCRESGRTEQWTCQPLYVGVSTFPEMKEMSPKSVGGENVPFWNGAVVHDSPLMTDRSGSEVDKKPLKTRKCAWNLTYVRKNDWPEAHQMHEGDAII” here?
**A.** The value was “not soluble”.

**Q.** Which “soluble on expression in E. coli” value does the source give for “MAHHHHHHMWQHHNLSSPTLGPREAKPTVQTSRRGCMRSDAWCSSLAGGGHDDPSESVPNSRVSPRASSFAPPQRTAPSPTESTSQELFELQNCNHHKQQQKQQLVIRQEDIRDDDFQRLEVLGDGSYSVVVSARHLPTQQLVALKEVSRHRLRELKLEKQLQWEINVHRTLRHPNVVRMLSYYITPQTVVLVLEMCPGGTLLQKLKTMPGGRFDERRASRYVRQAARALTYLHGHGIAHRDLKLENIFLDAHGVARLGDFGWSKALVEPTVEQDLSSHHDNFGTAPCSAAKDVSPLCSGGRGRLTVCGTLDYLSPEMLIGMPHTFKTDVWSLGVMLAEMLTGAPPFYCVSQQDTLNAIREAAPHLGDDVQMSSLARELVLAMLQKNPDARPTMAEVLQHPWTRQNGEKKKKKK” here?
**A.** Its value is “soluble”.

**Q.** For “MAHHHHHHSLMLVVRPISMADYEALHTCAVESGHGFTSLPVDQELLTNRITHSEYSFSKPNVTMPGDEGYLMVGVDTETGQVAGTTGIEASIGWDVPFYSYHISTIVHSSPKLGVNNVVKLLTFGNNYTGCSEICTLFLRPQYRQGLNGRLMSKCRFLMMAEHSHRFSKTIFAEMRGVSDADGNSPFWKWLQEHFFSIDFTLADYLTGIGKKGFIADLMPKLPIYVNLLSKEAQAVIGQVHENTRPALVLLEKEGFTCRNYVDIFDAGPTVECELNNIESVRHSVRAIVEVAEHSSSQNFIMCNTSFENFRATAAKAAYSQEDNAVIISPKVAAALEVSTGDYLRILAQEG”, which “soluble on expression in E. coli” value is on record?
**A.** The value was “not soluble”.

**Q.** For “MAHHHHHHSLRGIIKRLNDDGFGILYNKILVPFSAPGDEVEVLKTEKQKRAKIATEWRLLRSSPIRVGARCKVFGKCGGCILQHINYNSQLEFKKEKLRKILGREVEIIPSPRIFGHRNRIDLAVTVNAIGFREKGKWWSVVDVEECPVFGKTSKKAIERLREYIEEEKVSTWKIREDSGFLRYMVLREGKFTGEIMVNFVTKEGELPDPTSYFDFADSIYWSINRSKSDVSYGDIEKYWGKEFIMEELDGVKYLIHPNSFFQTNSYQAVNLVKTVEKFVEGEKVVDMYSGVGTFGVYLAKKGMKVVGFDSNAFAIEMANKNAEINNVEAEFFVASDREVDIKGFDTVIVDPPRAGLHPKLVKRLNDHGPETIVYVSCNPKTFKVNIEQLNNYIIEELIALDMFPHTPHIELVGKLRRLVEG”, which “soluble on expression in E. coli” value is on record?
**A.** The value was “soluble”.

**Q.** Which “soluble on expression in E. coli” value does the source give for “MAHHHHHHSLRLKEQSLQVTTKTGKESQKKTQTTAKSTITVDIKGAVKHEGVYTLPIDSRINDVIEKAGGFSEKADRKSVNLAQKLQDEAVIYVAAIGENISVIRDSQEGKTSQADKANTKETSVKGKVNLNTATLADLQTISGIGEKKAQDILDYREANGGFKSVDDLKNISGIGDKTFEKLKDLVSVDEG” here?
**A.** The value was “soluble”.

**Q.** Which “soluble on expression in E. coli” value does the source give for “MAHHHHHHSLRMTQAKTYKVSRDETQHGKDSEHHLIAGYNSSMRLWHNEEPSDTADKTPRSHEYETLGYVISGQVELTVDGQTLTLSAGDSYRVPKGAEHVFRVTETLTAVEVTTPATNKEG” here?
**A.** The value was “soluble”.

**Q.** With “MAHSKHGLKEEMTMKYHMEGCVNGHKFVITGEGIGYPFKGKQTINLCVIEGGPLPFSEDILSAGFMYGDRIFTEYPQDIVDYFKNSCPAGYTWGRSFLFEDGAVCICNVDITVSVKENCIYHKSIFNGMNFPADGPVMKKMTTNWEASCEKIMPVPKQGILKGDVSMYLLLKDGGRYRCQFDTVYKAKSVPSKMPEWHFIQHKLLREDRSDAKNQKWQLTEHAIAFPSALA” as the sequence, how does the “soluble on expression in E. coli” value read?
**A.** The value was “soluble”.

**Q.** With “MAIEIPNMIQIGSTGRNSGKTTLAEALIKQYQEVYPIYGLKIITISGQRGVCQRGTKGCGICTSITAGYELVEEQETIGNKDTMKLLAAGCQKVFLLKVFQENLAEAIQQFLKAVPAQALIICESNSLRNVVQPGLFLMMNNQNRQKESAKKVIDKADFCLLSAEIPKKLRIYYQGEQLQVSLKRGNKKECVH” as the sequence, how does the “soluble on expression in E. coli” value read?
**A.** Its value is “not soluble”.

**Q.** Which “soluble on expression in E. coli” value does the source give for “MAISKKKRFFFDLAQDEDDAETVQEVKKVEQQLKLEPVVQPQHDLTNQTKANQSSQDRKFFSKDMPQFDFGPLLKFGDEFVKSFNQFPKQEPQTSTQPVNVQPQSEPTNFNNQVPTQPVHQTAEVHLNEFQQPTTTNFNQQPVATSNIQVEATQPIVEPVPQPEPQPAVEQPQVKQTTRPSNKLQEEENLPPPKAKVPGIIPLERQERLTTGVHFYTSTRVWNKVKRYAKAVNIPISRILTMILDQVIEE” here?
**A.** Its value is “soluble”.

**Q.** With “MAISLRQLEIFEKVAQCEHVTQASTQLFLTQSAVSMAIAELERVAGAPLFERRGKRLLLNDRGRKILPEAEEVVRRTRAIEQFLEDSAGEPRGVLNVGASTTIGNYILPELIAEFSGNYPDAKVLLTIGNAHQIEHALEKGELDLGLIEGIPHSGVLDSTPWKKDELVVVVGKGHPWACDGAASVEMLGNAPWIMRETGSGTREVFEGAMAGKGISFSISLELGHTEAIKKAIEAGLGVGCLSRIAVNRELEHGWLVEIACPLDLKRTLSLQTRQSGYKTRLLCAFWSLLNRHKDI” as the sequence, how does the “soluble on expression in E. coli” value read?
**A.** The value was “not soluble”.

**Q.** For “MAISSRNTLLAALAFIAFQAQAVNVTVAYQTSAEPAKVAQADNTFAKESGATVDWRKFDSGASIVRALASGDVQIGNLGSSPLAVAASQQVPIEVFLLASKLGNSEALVVKKTISKPEDLIGKRIAVPFISTTHYSLLAALKHWGIKPGQVEIVNLQPPAIIAAWQRGDIDGAYVWAPAVNALEKDGKVLTDSEQVGQWGAPTLDVWVVRKDFAEKHPEVVKAFSKSAIDAQQPYIANPDVWLKQPENISKLARLSGVPEGDVPGLVKGNTYLTPQQQTAELTGPVNKAIIDTAQFLKEQGKVPAVANDYSQYVTSRFVQ”, which “soluble on expression in E. coli” value is on record?
**A.** The value was “not soluble”.

**Q.** Which “soluble on expression in E. coli” value does the source give for “MAITNIKCVIFDCDGTLVDSERLCCQALVNVFNQHGAELTMEECVSHFKGGKLADILLDTKELMNINVPIDVLEPQYRTEVQKLFVRHLQPMDGAKRLIQFLDSHNIEYCVASNGPKDKIEHALELTGLLDAFKGKVFSAFEANSWKPEPDLIMYSAMSMGFLPSDCLYIDDTPKGVEAGLNAGIKTVQLFNGEAINRVDDDRVIRIQHLDELKEQLMGCSV” here?
**A.** Its value is “not soluble”.

**Q.** For “MAKDIKFSEEARRSMLRGVDTLANAVKVTLGPKGRNVVLEKKFGSPLITNDGVTIAKEIELEDAFENMGAKLVAEVASKTNDVAGDGTTTATVLAQAMIREGLKNVTAGANPMGLRKGIEKAVVAAVEELKTISKPIEGKSSIAQVAAISAADEEVGQLIAEAMERVGNDGVITLEESKGFTTELDVVEGMQFDRGYASPYMITDSDKMEAVLDNPYILITDKKISNIQEILPVLEQVVQQGKPLLIIAEDVEGEALATLVVNKLRGTFNVVAVKAPGFGDRRKAMLEDIAILTGGEVITEELGRDLKSATVESLGRAGKVVVTKENTTVVEGVGSTEQIEARIGQIRAQLEETTSEFDREKLQERLAKLVGGVAVIKVGAATETELKERKLRIEDALNSTRAAVEEGIVAGGGTSLMNVYTKVASIVAEGDEATGINIVLRALEEPVRQIAINAGLEGSVVVERLKGEKVGVGFNAATGEWVNMLETGIVDPAKVTRSALQNAASVAAMFLTTEAVVADKPEPNAPAMPDMGGMGMGGMGGMM”, which “soluble on expression in E. coli” value is on record?
**A.** The value was “not soluble”.

**Q.** With “MAKEKARYFTFLLYPESIPSDWELKLETLGVPMAISPLHDKDKSSIKGQKYKKAHYHVLYIAKNPVTADSVRKKIKLLLGEKSLAMVQVVLNVENMYLYLTHESKDAIAKKKHVYDKADIKLINNFDIDRYVTLDVEEKTELFNVVVSLIRAYTLQNIFDLYDFIDENGETYGLTINLVNEVIAGKTGFMKLLFDGAYQRSKRGTKNEER” as the sequence, how does the “soluble on expression in E. coli” value read?
**A.** Its value is “soluble”.

**Q.** For “MAKGSSDKDNGYGNIRTSTSLSICCQDSHLTTPIAPIAPELYSLKVPKDYTPETTSTMRRSLESRLAWLGRQSYVFRSLKQLETVTHNATIRTFFWKDGSVSSSTGGNDGFWIKDELHAGA”, which “soluble on expression in E. coli” value is on record?
**A.** The value was “not soluble”.

**Q.** Which “soluble on expression in E. coli” value does the source give for “MAKGTPVTLTTNTEGATIYYTLDGSNPTNKSVRYNGRIVVNENSVIKAIAEKEGLTSSAISTFSFVIVNNEPVRIHDIQGKSHLSPYNGKKVYNVEGVVTALDKNGFYIEDNQPDNDPATSEGMYVYKKDANVAVGDLIQVDGVVEEYVGPGYAERFDTDLTTTEIKASRVVVIAKDQVLPAPIVLGENGVKIPDQIIDNDAFGLFDPNEDAIDFYESVEGMRVTMPTPKIIAPQKNGNLYVTVKNGGNKVVTKYGTPVLDENQLNPERLSVKVPRDYVAKVGDTFTGDITGVVGYDYGSFRIAPITELPSVVDGGFKQIGANIQPRLEHHHHHH” here?
**A.** Its value is “not soluble”.

**Q.** Which “soluble on expression in E. coli” value does the source give for “MAKHGADEPSSRSGSPDREGRASEDRSLLHQRLAVRELIDTEVSYLHMLQLCASDIRSRLQQLPQGDLDVLFSNIDDIIKVNSRFLHDLQETASKEEEQVQLVGNIFLEFQEELEQVYKVYCASYDQALLLVDTYRKEPELQRHIQGIVEAVVPQAGSSGLSFLLVIPLQRITRYPLLLQKILENTVPDASAYPVLQRAVSALQDVNTNINEYKMRKEVASKYTKVEQLTLRERLARINTHTLSKKTTRLSQLLKQEAGLIPRTEDKEFDDLEERFQWVSLCVTELKNNVAAYLDNLQGAVGFYHWLTPTQMIDGLALGESTPGPLIMVVAFVGFLAAYNHSLLGAEHQFIAVLQDVRDHRITQVRAAEILNLSTRQITRLLQKLNQDGVSGLAHASRGQPGHHRHDELLKSKCLSIISEHLLGFGPTLAHEKLSSIFDLNIPVETVRRWMMANDLWIPRSKRLKRPYQPRYNRDCFGELIQIDGSYHDWFEGRAAKCCLLVYIDDATGKLLHLRFCEAETTFDYMLSTRAYIEQYGKPLAFYSDKHSVFRVNQKSRKDSQITQFGRILNELNIDIIFANSPQAKGRVERANRTLQDRLIKEMRLEGISSIAEANAWLPCFIEHFNQKFAKCARNSKNLHRSLTESDAELEDIFTWQEPRKVTKNLTITYDKCIYLLEPTELNHKLVGQYISFLEYPDGTVALMHEGRKINYSVFNKLAGLQQNEVVENKRLGSVLAHIQQQHEELEKQNKRSRLKKSMPSRKAQKAVIEQRKLNPVLDSCG” here?
**A.** Its value is “soluble”.

**Q.** For “MAKIALIGASGNAGSRILKELSDRGHQVTAIARNPEKIAALPNVVAKKGDVFDQAALSELLKGHDAVISSVHFTASDPATLIEAVRASGVQRYLVVGGAGSLEIAPGQRVVDLPDFPAAYKAEATKGAEFLDKLKQEKQLDWTFLSPSAEFVPGERTGKFRIGKDNLLSNEQGSRISFEDYAIALADEIEKPQHSRQRFTVGY”, which “soluble on expression in E. coli” value is on record?
**A.** Its value is “not soluble”.

**Q.** Which “soluble on expression in E. coli” value does the source give for “MAKKVLIISSSPRKGGNSDMLCDEFMKGVLETGNEVEKIFLKEKVIHPCTGCSVCSMYGKPCPQKDDAAGIVEKMIAADVIVMATPVYFYTMCGQMKIMIDRCCARYTEITNKEFYFIIAAAENDKGMMERTIDGFRGFLDCLENPQEKGVIYGIGAWKVGEIKDTPYMQEAYEMGKMV” here?
**A.** Its value is “not soluble”.
